T1: 4K-6H-NS2/3 (904-1206)st-4K (Hepatitis C virus genotype 1b)
T1 chain: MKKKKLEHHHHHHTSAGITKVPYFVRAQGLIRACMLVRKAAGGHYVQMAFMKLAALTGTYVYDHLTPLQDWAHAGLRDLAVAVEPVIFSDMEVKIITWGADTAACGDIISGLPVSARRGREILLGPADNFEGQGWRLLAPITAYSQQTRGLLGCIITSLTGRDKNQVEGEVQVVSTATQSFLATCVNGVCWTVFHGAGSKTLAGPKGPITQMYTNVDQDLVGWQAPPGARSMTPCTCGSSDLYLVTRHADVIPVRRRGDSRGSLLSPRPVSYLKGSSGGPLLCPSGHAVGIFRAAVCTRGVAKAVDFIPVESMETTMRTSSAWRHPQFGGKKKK


Molecular target: T1, 4K-6H-NS2/3 (904-1206)st-4K
Assay: cell-based or functional assay

Row | Binder | IC50, inhibition of NS2/3 autocleavage [µM]
1 | SFEGQGWRLL [Peptide 2, SFEGQGWRLL] | 90
2 | KGWRLLAPITAY [Peptide 4, KGWRLL-APITAY] | 630
3 | SFEGQGWRLLAPITAYSQQT [Peptide 1, SFEGQGWRLL-APITAYSQQT] | 270
4 | APITAYSQQT [Peptide 3, APITAYSQQT] | > 1000
5 | APITAY [Peptide 5, APITAY] | 1000

— patent publication US20020192640A1 (Boehringer Ingelheim, published 2002)
